Measurements reported in PMC8273886, “Design of a Stable Cyclic Peptide Analgesic Derived from Sunflower Seeds that Targets the κ-Opioid Receptor for the Treatment of Chronic Abdominal Pain” (Journal of Medicinal Chemistry, 2021).
Bridge positions count the residues as written; N and C are the ends. Square brackets hold non-standard residues; d marks the D form. dNle = CCCC[C@@H](N)C(=O)O

B1: helianorphin-13 (peptide)
chain: cyclo(CTASIPPIC[dF][dF][dNle][dR]R)
modifications: disulfide 1-9 (inferred)
B2: helianorphin-10 (peptide)
peptide: cyclo(CT[dF][dF][dL][dK]PICFPDGR)
modifications: disulfide 1-9 (inferred)
notes: source: synthetic peptide (Fmoc chemistry, backbone cyclised, oxidised, RP-HPLC purified)
B3: helianorphin-7 (peptide)
peptide: cyclo(CTASIPPICYGGFLR)
modifications: disulfide 1-9 (inferred)
notes: SFTI-1 scaffold (K replaced with A) with YGGFL grafted after the second Cys; source: synthetic peptide (Fmoc chemistry, backbone cyclised, oxidised, RP-HPLC purified)
B4: helianorphin-3 (peptide)
peptide: cyclo(CYGGFLRRICFPDGR)
modifications: disulfide 1-10 (inferred)
notes: as for B2
B5: helianorphin-19 (peptide)
peptide: cyclo(CYGGFLRRCIRPKLK)
modifications: disulfide 1-9 (inferred)
notes: dyn A 1–13 divided into two fragments (YGGFLRR and IRPKLK) placed in the two loops of the SFTI-1 scaffold; source: synthetic peptide (Fmoc chemistry, backbone cyclised, oxidised, RP-HPLC purified)
B6: helianorphin-11 (peptide)
peptide: cyclo(CTASIPPIC[dF][dF][dL][dK]R)
modifications: disulfide 1-9 (inferred)
notes: as for B2
B7: helianorphin-2 (peptide)
peptide: cyclo(CTKSIPPICYGGFLRRIRPKLK)
modifications: disulfide 1-9 (inferred)
notes: as for B2
B8: helianorphin-6 (peptide)
peptide: cyclo(CTYGGFLRCFPDGR)
modifications: disulfide 1-9 (inferred)
notes: SFTI-1 scaffold with dyn A 1–6 (YGGFLR) grafted after CT; source: synthetic peptide (Fmoc chemistry, backbone cyclised, oxidised, RP-HPLC purified)
B9: sunflower trypsin inhibitor-1 (SFTI-1) (peptide)
peptide: cyclo(CTKSIPPICFPDGR)
modifications: disulfide 1-9 (inferred)
notes: SFTI-1, 14-residue cyclic peptide from the seeds of sunflower (Helianthus annuus); The methods say that all peptides were synthesised; source: synthetic peptide (Fmoc chemistry, backbone cyclised, oxidised, RP-HPLC purified)
B10: helianorphin-1 (peptide)
peptide: cyclo(CYGGFLRRIRPKLKCFPDGR)
modifications: disulfide 1-15 (inferred)
B11: helianorphin-9 (peptide)
peptide: cyclo(CTASIPPICYGGFR)
modifications: disulfide 1-9 (inferred)
notes: SFTI-1 scaffold (K replaced with A) with dyn A 1–4 (YGGF) grafted after the second Cys; source: synthetic peptide (Fmoc chemistry, backbone cyclised, oxidised, RP-HPLC purified)
B12: helianorphin-18 (peptide)
peptide: cyclo(CTYGGFLRCRIRPKLK)
modifications: disulfide 1-9 (inferred)
notes: dyn A 1–13 divided into two fragments (YGGFLR and RIRPKLK) placed in the two loops of the SFTI-1 scaffold; source: synthetic peptide (Fmoc chemistry, backbone cyclised, oxidised, RP-HPLC purified)
B13: helianorphin-4 (peptide)
peptide: cyclo(CTKSIPPICYGGFLRRI)
modifications: disulfide 1-9 (inferred)
notes: as for B2
B14: helianorphin-8 (peptide)
peptide: cyclo(CTYGGFPICFPDGR)
modifications: disulfide 1-9 (inferred)
notes: SFTI-1 scaffold with dyn A 1–4 (YGGF) grafted after CT; source: synthetic peptide (Fmoc chemistry, backbone cyclised, oxidised, RP-HPLC purified)
B15: helianorphin-5 (peptide)
peptide: cyclo(CYGGFLRICFPDGR)
modifications: disulfide 1-9 (inferred)
notes: SFTI-1 scaffold with dyn A 1–6 (YGGFLR) grafted after the first Cys; source: synthetic peptide (Fmoc chemistry, backbone cyclised, oxidised, RP-HPLC purified)
B16: helianorphin-12 (peptide)
chain: cyclo(CT[dF][dF][dNle][dR]PICFPDGR)
modifications: disulfide 1-9 (inferred)

Assays:
[1] = target: T1, mouse κ-opioid receptor (KOR) tagged with EGFP (mouse, UniProt P33534 1-380); assay: radioligand binding; two-point displacement: 1 nM [3H]-diprenorphine with or without 10 μM or 100 nM peptide on membranes of HEK293 cells stably expressing the mouse KOR; details: one partner purified
T1 construct: κ-opioid receptor, mouse; cloned into the pEGFP-N1 vector with BamHI and HindIII; read as EGFP at the receptor's C-terminus; also called mouse KOR; KOR-EGFP; source: HEK293, stably expressing (membrane preparations; whole cells for cAMP); HEK293, transiently transfected (BRET); not shown: EGFP, C-terminal, kept

[2] = target: T1, mouse κ-opioid receptor (KOR) tagged …; assay: radioligand binding; concentration-dependent competition against 1 nM [3H]-diprenorphine on membranes (7 μg/assay) of HEK293 cells stably expressing the mouse KOR; 50 mM Tris–HCl pH 7.4, 10 mM MgCl2, 0.1% BSA; 1 h at 37 °C; Ki from IC50 by Cheng and Prusoff; details: one partner purified
[3] = target: T1, mouse κ-opioid receptor (KOR) tagged …; assay: cell-based or functional assay
[4] = target: T1, mouse κ-opioid receptor (KOR) tagged …; assay: cell-based or functional assay; remark: listed apart in the source
[5] = target: T2, mouse δ-opioid receptor (DOR) (mouse, UniProt P32300 1-372); assay: radioligand binding; competition against [3H]-diprenorphine on membranes of HEK293 cells stably expressing the mouse MOR (50 μg) or DOR (20 μg); 50 mM Tris–HCl pH 7.4, 10 mM MgCl2, 0.1% BSA; 1 h at 37 °C; details: one partner purified
T2 construct: δ-opioid receptor, mouse; the construct is not described; source: HEK293, stably expressing, membrane preparations

[6] = target: T3, mouse μ-opioid receptor (MOR) (mouse, UniProt P42866 1-398); assay: as above; details: one partner purified
T3 construct: μ-opioid receptor, mouse; the construct is not described; source: HEK293, stably expressing, membrane preparations

[7] = target: T1, mouse κ-opioid receptor (KOR) tagged …; assay: radioligand binding; three concentrations of SFTI-1 (μM), displacement of 1 nM [3H]-diprenorphine on membranes of HEK293 cells stably expressing the mouse KOR; details: one partner purified

Row | Binder | Ki [1] [µM] | Ki [2] [µM] | cAMP inhibition in HEK293 cells stably expressing the mouse KOR, Emax [3] [%] | also measured
1 | B1 | > 10 |  |  | 
2 | B2 | > 10 |  |  | 
3 | B3 | > 10 |  |  | 
4 | B4 |  | 3.2 | 85.1 | cAMP inhibition in HEK293 cells stably expressing the mouse KOR, EC50 [3]: 1.4 µM
5 | B5 |  | 0.021 | 108 | cAMP inhibition in HEK293 cells stably expressing the mouse KOR, EC50 [3]: 0.045 µM; β-arrestin-2 recruitment to the KOR (BRET, HEK293 cells with mouse KOR-EGFP and β-arrestin-2-nano-luciferase), EC50 [4]: 1.4 µM; Ki [5]: > 10 µM; Ki [6]: > 10 µM
6 | B6 | > 10 |  |  | 
7 | B7 |  | 0.097 | 102 | cAMP inhibition in HEK293 cells stably expressing the mouse KOR, EC50 [3]: 1.3 µM
8 | B8 | > 10 |  |  | 
9 | B9 |  |  |  | Ki [7]: > 30 µM
10 | B10 |  |  | 106 | 
11 | B11 | > 10 |  |  | 
12 | B12 |  | 0.65 |  | 
13 | B13 |  | 2.5 | 87.8 | cAMP inhibition in HEK293 cells stably expressing the mouse KOR, EC50 [3]: 4.7 µM
14 | B14 | > 10 |  |  | 
15 | B15 | > 10 |  |  | 
16 | B16 |  |  | 117 | 
